The series concerns the target beta-galactosidase (UniProt P00722 P00722:2-1024). Description: EMSA; data not shown; negative control protein. The settings on record: tags: pure protein, chain copies: 4, label: 32P. The method, then:
11:1475-1489). Protein extracts from lysogens were prepared as described (see, for example, Cowell, I. G. and H. C. Hurst. 199. Cloning transcription factors from a cDNA expression library, p.120-122. In D. S. Latchman (ed.), Transcription factors: a practical approach. IRL Press, New York). Competitors were pre-incubated with nuclear extract for 20 minutes prior to addition of the probe. Oligonucleotides sequences of probes and competitors for EMSA analyses are shown below.
To verify that the cDNA encoded a protein with the expected binding specificities of BP1, namely, the ability to bind to Silencers I and II upstream of the β-globin gene and to a sequence −530 bp upstream of the δ-globin gene (see, for example, Berg, P. E., S. Abhyankar, and M. Chase. 1994. The high mobility group protein HMG-I(Y) binds to a silencer DNA sequence upstream of the human β-globin gene. Blood 84 Suppl 1:262a), an EMSA competition assay was performed. The putative BP1 protein, fused to β-galactosidase, was expressed from a λ lysogen, as described above. This fusion protein was partially purified and incubated with the Silencer II probe used for screening the library, resulting in a single shifted band, indicated by the arrow (FIG. 2, lane 1). The band at the top marks the position of the wells, and the band at the bottom contains the unshifted probe. […]
A general note: A gel shift assay detects complexes by their altered migration in electrophoresis.

beta-galactosidase, sequence (P00722 2-1024, one chain of several): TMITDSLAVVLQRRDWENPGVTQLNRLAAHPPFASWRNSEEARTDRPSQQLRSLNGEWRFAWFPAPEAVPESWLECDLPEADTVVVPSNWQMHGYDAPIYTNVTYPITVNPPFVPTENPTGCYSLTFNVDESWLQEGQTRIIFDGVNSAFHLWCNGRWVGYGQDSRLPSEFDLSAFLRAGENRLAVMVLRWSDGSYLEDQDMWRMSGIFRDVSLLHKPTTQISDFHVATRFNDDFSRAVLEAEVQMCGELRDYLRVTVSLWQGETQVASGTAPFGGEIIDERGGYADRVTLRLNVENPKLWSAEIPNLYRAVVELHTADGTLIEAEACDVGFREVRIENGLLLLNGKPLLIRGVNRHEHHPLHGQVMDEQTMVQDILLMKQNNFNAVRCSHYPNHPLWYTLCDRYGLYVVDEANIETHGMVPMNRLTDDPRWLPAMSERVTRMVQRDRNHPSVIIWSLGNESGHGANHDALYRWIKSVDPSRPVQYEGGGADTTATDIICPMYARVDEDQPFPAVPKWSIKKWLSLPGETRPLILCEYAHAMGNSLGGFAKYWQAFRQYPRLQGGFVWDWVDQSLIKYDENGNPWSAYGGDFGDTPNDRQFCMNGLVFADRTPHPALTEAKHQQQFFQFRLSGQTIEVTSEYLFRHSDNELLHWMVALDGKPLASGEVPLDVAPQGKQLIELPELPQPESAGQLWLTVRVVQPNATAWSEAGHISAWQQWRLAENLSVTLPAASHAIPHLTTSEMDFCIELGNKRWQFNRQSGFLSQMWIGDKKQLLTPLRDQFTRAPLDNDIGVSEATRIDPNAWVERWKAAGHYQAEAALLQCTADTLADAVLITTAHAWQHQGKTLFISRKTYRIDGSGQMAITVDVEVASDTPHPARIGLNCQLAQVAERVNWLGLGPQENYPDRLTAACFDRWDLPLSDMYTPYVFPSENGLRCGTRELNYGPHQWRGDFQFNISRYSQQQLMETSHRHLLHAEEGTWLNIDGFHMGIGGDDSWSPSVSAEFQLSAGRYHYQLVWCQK

B1: -300 beta (Silencer II) (dsDNA)
DNA 1: TTCTTATTTGTGTAATAAGAAAATTGGGAAAACGATCTTCAATATGCTTACCAAGCTG
DNA 2: CAGCTTGGTAAGCATATTGAAGATCGTTTTCCCAATTTTCTTATTACACAAATAAGAA
Consider B1, for which the binding result was “no binding”.

Source of the values: patent publication US20030171273, “Novel transcription factor, BP1” (published 2003).
